Data reported in patent publication US8258256 (Johns Hopkins, dated 2012).
Ends that are not written are not given here. * marks the point of attachment. Biotin = O=C1N[C@H]2[C@H](CS[C@H]2CCCCC(=O)*)N1

B1: WQPDTAHHWATLK (Biotin) monomeric peptide (peptide)
peptide: WQPDTAHHWATLK(Biotin)-OH
modifications: N-terminus assumed
SMILES: CC(C)C[C@H](NC(=O)[C@@H](NC(=O)[C@H](C)NC(=O)[C@H](Cc1c[nH]c2ccccc12)NC(=O)[C@H](Cc1c[nH]cn1)NC(=O)[C@H](Cc1c[nH]cn1)NC(=O)[C@H](C)NC(=O)[C@@H](NC(=O)[C@H](CC(=O)O)NC(=O)[C@@H]1CCCN1C(=O)[C@H](CCC(N)=O)NC(=O)[C@@H](N)Cc1c[nH]c2ccccc12)[C@@H](C)O)[C@@H](C)O)C(=O)N[C@@H](CCCCNC(=O)CCCC[C@@H]1SC[C@@H]2NC(=O)N[C@@H]21)C(=O)O
notes: Synthetic, Fmoc chemistry; also called biotinylated monomeric peptide
B2: selected phage with insert SEQ ID NO 33 (peptide)
peptide: AWPENPSRRPFT
modifications: not fully specified; also: displayed on M13 phage pIII
notes: Selected in three rounds on His-PSMA; not tested singly; not shown: M13 phage coat protein III
B3: selected phage with insert SEQ ID NO 9 (peptide)
peptide: SEFIHHWTPPPS
modifications: not fully specified; also: displayed on M13 phage pIII
notes: as for B2
B4: selected phage with insert SEQ ID NO 30 (peptide)
peptide: WTHHHSYPRPLQ
modifications: not fully specified
notes: as for B2
B5: selected phage with insert SEQ ID NO 29 (peptide)
peptide: GHLIPLRQPSHQ
modifications: not fully specified
notes: as for B2
B6: selected phage with insert SEQ ID NO 13 (peptide)
peptide: AGFQHHPSFYRF
modifications: not fully specified
notes: as for B2
B7: selected phage with insert SEQ ID NO 6 (peptide)
peptide: NSFPLMLMHHHP
modifications: not fully specified; also: displayed on M13 phage pIII
notes: as for B2
B8: selected phage with insert SEQ ID NO 8 (peptide)
peptide: SLDSMSPQWHAD
modifications: not fully specified; also: displayed on M13 phage pIII
notes: as for B2
B9: selected phage with insert SEQ ID NO 17 (peptide)
peptide: QRSPMMSRIRLP
modifications: not fully specified
notes: as for B2
B10: selected phage with insert SEQ ID NO 32 (peptide)
peptide: HHEWTHHWPPPP
modifications: not fully specified; also: displayed on M13 phage pIII
notes: as for B2
B11: selected phage with insert SEQ ID NO 31 (peptide)
peptide: KHMHWHPPALNT
modifications: not fully specified
notes: as for B2
B12: selected phage with insert SEQ ID NO 14 (peptide)
peptide: KSLSRHDHIHHH
modifications: not fully specified
notes: as for B2
B13: selected phage with insert SEQ ID NO 36 (peptide)
peptide: TPLPSFTDGHHT
modifications: not fully specified; also: displayed on M13 phage pIII
notes: as for B2
B14: selected phage with insert SEQ ID NO 35 (peptide)
peptide: MIHTNHWWAQDR
modifications: not fully specified; also: displayed on M13 phage pIII
notes: as for B2
B15: selected phage with insert HNAYWHWPPSMT (SEQ ID NO 2) (peptide)
peptide: HNAYWHWPPSMT
modifications: not fully specified
notes: as for B2
B16: selected phage with insert SEQ ID NO 34 (peptide)
peptide: YRHWPIDYPPPP
modifications: not fully specified; also: displayed on M13 phage pIII
notes: as for B2
B17: selected phage with insert SEQ ID NO 4 (peptide)
peptide: YTSPHHSTTGHL
modifications: not fully specified; also: displayed on M13 phage pIII
notes: as for B2
B18: selected phage with insert SEQ ID NO 10 (peptide)
peptide: NGFSHHAPLMRY
modifications: not fully specified
notes: as for B2
B19: WQPDTAHHWATL (SEQ ID NO:1) phage (peptide)
peptide: WQPDTAHHWATL
modifications: not fully specified
notes: Whole M13 phage particle displaying the 12-mer; tested as phage, in pfu/ml; not shown: M13 phage coat protein III
B20: non-selected control peptide QMARIPKRLARHK-biotin (peptide)
peptide: QMARIPKRLARHK(Biotin)
notes: also called control consisting of a positively charged 12 amino acid peptide
B21: dimeric WQPDTAHHWATL (SEQ ID NO:1) peptide (as used in the NAALADase assay) (peptide)
peptide: WQPDTAHHWATL
chain: Lys
modifications: not fully specified (C-terminus); printed as (WQPDTAHHWATL)2-K; also: two copies of chain 1, C-termini joined to alpha and epsilon amines of branching Lys, C-terminal label on Lys not given here
B22: monomeric WQPDTAHHWATL (SEQ ID NO:1) peptide (as used in the NAALADase assay) (peptide)
peptide: WQPDTAHHWATL

Each binder was assayed against T1, His-PSMA (recombinant extracellular domain of prostate specific membrane antigen with amino-terminal His-6 … (UniProt Q04609 44-750, limits assumed)) (assay: ELISA, biotinylated peptide on immobilized PSMA against immobilized BSA).
T1 construct: extracellular domain; Expressed in Drosophila S2 cells from pMT-His-PSMA (pMT/BiP/V5-HisA backbone) and purified on Ni-NTA; also called His-tagged PSMA; recombinant PSMA
T1 sequence (Q04609 other isoform, or with tags, fused parts or gaps limits assumed): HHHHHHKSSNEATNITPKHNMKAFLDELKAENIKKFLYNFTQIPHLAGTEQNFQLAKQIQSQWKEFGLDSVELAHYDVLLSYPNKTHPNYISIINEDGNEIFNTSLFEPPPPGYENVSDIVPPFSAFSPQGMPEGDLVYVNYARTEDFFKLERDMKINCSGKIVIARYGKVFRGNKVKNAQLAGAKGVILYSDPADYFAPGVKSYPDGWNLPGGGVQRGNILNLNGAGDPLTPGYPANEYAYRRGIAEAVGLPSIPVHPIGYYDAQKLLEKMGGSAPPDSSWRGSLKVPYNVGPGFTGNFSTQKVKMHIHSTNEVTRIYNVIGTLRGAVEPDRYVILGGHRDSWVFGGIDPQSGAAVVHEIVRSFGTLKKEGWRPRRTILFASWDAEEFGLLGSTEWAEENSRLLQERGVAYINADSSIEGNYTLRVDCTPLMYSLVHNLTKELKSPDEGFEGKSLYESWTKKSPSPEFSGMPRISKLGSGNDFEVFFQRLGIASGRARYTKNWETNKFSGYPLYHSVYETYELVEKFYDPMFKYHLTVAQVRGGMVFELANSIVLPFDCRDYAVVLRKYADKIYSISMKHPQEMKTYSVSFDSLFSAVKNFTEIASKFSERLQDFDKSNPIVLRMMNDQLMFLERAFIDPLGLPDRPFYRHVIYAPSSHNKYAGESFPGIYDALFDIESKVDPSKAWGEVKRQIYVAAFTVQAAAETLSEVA
Source text: (§1) Recombinant PSMA (0.625 µgs) and BSA (25 µgs/ml) were immobilized and indicated concentrations of the biotinylated […] […] Results are the mean binding in 4 replicate wells each ±S.D.
B1: binds.

What follows are binders tested against T1, His-PSMA (recombinant extracellular …) (assay: phage display selection in solution on His-PSMA, three rounds, capture with anti-His magnetic beads).
Protocol: Phage Library Screening—Peptides from the random M13 12-mer phage library were selected using His-tagged PSMA as the target, which was then captured using magnetically labeled Anti-His Tag Antibody. To remove non-specific phage binding to Anti-His antibody and other components of the magnetic separation system, the library was depleted 2 times with the His-MACS system. First Round of Screening: The final eluate from negative screening was incubated with 0.8 μgs of PSMA for 30 mins at room temperature. 50 uls of His-MACS were added and allowed to bind for 30 mins at room temperature. The incubation mixture was loaded onto a MACS column and washed twice with 1 ml of PBS/0.1% Tween 20 (PBST). Beads containing PSMA bound to phage were collected and amplified using PhD Kit protocol (NEB, Auburn, Mass.). Second Round Screening: Negative screening was repeated as above except with more BSA (0.5%) and longer incubation (1 hr at 4° C.). 10^10 pfu from the first round of screen were then incubated with PSMA in 1% BSA for 6 hrs at 4° C. His-MACS in 3% BSA were incubated for 30 mins and bound phages were collected and amplified as in round one. For third round screening the same method was used except Mouse IgG solution (100 μgs/ml) was added to the blocking solution. Individual phage were selected and sequenced after third round of screening.
To decrease the selection of non-specific low affinity binders, phage screening was performed in solution and incorporated negative screening steps using other selection components (i.e. antibodies, magnetic beads, etc.) to remove many background binders (22). Thus, for this study the phage library was incubated with magnetically labeled Anti-His_6 (SEQ ID NO: 25) antibody […]. After negative selection steps, His-PSMA was incubated with the phage library and phages bound to His-PSMA were captured using magnetically labeled Anti-His_6 (SEQ ID NO: 25) antibody, FIG. 1.
B2: binds. B3: binds. B4: binds. B5: binds. B6: binds. B7: binds. B8: binds. B9: binds. B10: binds. B11: binds. B12: binds. B13: binds. B14: binds. B15: binds. B16: binds. B17: binds. B18: binds.

What follows are binders tested against T1, His-PSMA (recombinant extracellular …) (assay: phage ELISA on immobilized His-PSMA against immobilized BSA, phage at 10^10 pfu/ml, anti-M13-HRP).
For B19, the “fold higher binding to PSMA compared to BSA” value was about 10 fold.

These binders were tested against T1, His-PSMA (recombinant extracellular …) (assay: ELISA, biotinylated peptide on immobilized PSMA or BSA).
Source text: as §1
B20: no binding.

The binders below were run against T1, His-PSMA (recombinant extracellular …) (assay: cell-based or functional assay).
B21 was tested, and the “fold better inhibition of PSMA than the monomer” value was about 10 fold and the “inhibition of NAAG hydrolysis (NAALADase activity of PSMA), IC50” value was 2.2 µM. In the case of B22, the “inhibition of NAAG hydrolysis (NAALADase activity of PSMA), IC50” value is reported as 23 µM.
